Test results: PMC4017264 (Molecular Cell, 2014)

Test system: endogenous OTULIN
Assay: coimmunoprecipitation of endogenous OTULIN with tagged HOIP/HOIL-1
Assay type: cell-based
Conditions: tagged HOIP/HOIL-1 constructs, HEK293T or U2OS/NOD2 cells, western blot
Procedure: Transfected HEK293T or U2OS and NOD2 cells were lysed in the presence of protease and phosphatase inhibitors. Clarified lysates were incubated overnight with anti-V5 and anti-HA-agarose resin. […]
siOTULIN: […], siMM […]
Immunoprecipitation of HOIP-V5 and HA-OTULIN
HEK293T or U2OS/NOD2 cells were transfected as indicated. The cells were lysed in IP buffer buffer (25 mM HEPES pH 7.4, 150 mM KCl, 2 mM MgCl2, 1 mM EGTA, 0.5% (v/v) Triton X-100) supplemented with 5 mM NEM (Sigma-Aldrich), cOmplete protease inhibitor cocktail (Roche) and PhosSTOP
(Roche). After 30 minutes on ice, the lysates were cleared by centrifugation and incubated overnight at 4 °C with anti-V5-agarose resin or anti-HA-agarose resin. The beads were washed four times in ice-cold IP buffer and the precipitated material was eluted with 0.2 M glycine, pH 2.5. […]

Row | Molecule | coimmunoprecipitation of endogenous OTULIN (in words) | coimmunoprecipitation of endogenous OTULIN (in words) (listed as wild-type HOIP)
1 | HOIL-1: epitope-tagged HOIL-1, LUBAC component (protein) MDEKTKKAEEMALSLTRAVAGGDEQVAMKCAIWLAEQRVPLSVQLKPEVSPTQDIRLWVSVEDAQMHTVTIWLTVRPDMTVASLKDMVFLDYGFPPVLQQWVIGQRLARDQETLHSHGVRQNGDSAYLYLLSARNTSLNPQELQRERQLRMLEDLGFKDLTLQPRGPLEPGPPKPGVPQEPGRGQPDAVPEPPPVGWQCPGCTFINKPTRPGCEMCCRARPEAYQVPASYQPDEEERARLAGEEEALRQYQQRKQQQQEGNYLQHVQLDQRSLVLNTEPAECPVCYSVLAPGEAVVLRECLHTFCRECLQGTIRNSQEAEVSCPFIDNTYSCSGKLLEREIKALLTPEDYQRFLDLGISIAENRSAFSYHCKTPDCKGWCFFEDDVNEFTCPVCFHVNCLLCKAIHEQMNCKEYQEDLALRAQNDVAARQTTEMLKVMLQQGEAMRCPQCQIVVQKKDGCDWIRCTVCHTEICWVTKGPRWGPGGPGDTSGGCRCRVNGIPCHPSCQNCH | OTULIN interacts with HOIP but not HOIL-1 | 
2 | N-terminal 185 amino acids (aa) spanning the PUB domain of HOIP: HOIP truncation (protein, UniProt Q96EP0 1-185, looked up, fragment) MPGEEEERAFLVAREELASALRRDSGQAFSLEQLRPLLASSLPLAARYLQLDAARLVRCNAHGEPRNYLNTLSTALNILEKYGRNLLSPQRPRYWRGVKFNNPVFRSTVDAVQGGRDVLRLYGYTEEQPDGLSFPEGQEEPDEHQVATVTLEVLLLRTELSLLLQNTHPRQQALEQLLEDKVEDD | sufficient to coimmunoprecipitate endogenous OTULIN | 
3 | HOIP: epitope-tagged HOIP, LUBAC E3 ligase component (protein, UniProt Q96EP0 1-1072, looked up, epitope tag) E3 ubiquitin-protein ligase …: MPGEEEERAFLVAREELASALRRDSGQAFSLEQLRPLLASSLPLAARYLQLDAARLVRCNAHGEPRNYLNTLSTALNILEKYGRNLLSPQRPRYWRGVKFNNPVFRSTVDAVQGGRDVLRLYGYTEEQPDGLSFPEGQEEPDEHQVATVTLEVLLLRTELSLLLQNTHPRQQALEQLLEDKVEDDMLQLSEFDPLLREIAPGPLTTPSVPGSTPGPCFLCGSAPGTLHCPSCKQALCPACDHLFHGHPSRAHHLRQTLPGVLQGTHLSPSLPASAQPRPQSTSLLALGDSSLSSPNPASAHLPWHCAACAMLNEPWAVLCVACDRPRGCKGLGLGTEGPQGTGGLEPDLARGRWACQSCTFENEAAAVLCSICERPRLAQPPSLVVDSRDAGICLQPLQQGDALLASAQSQVWYCIHCTFCNSSPGWVCVMCNRTSSPIPAQHAPRPYASSLEKGPPKPGPPRRLSAPLPSSCGDPEKQRQDKMREEGLQLVSMIREGEAAGACPEEIFSALQYSGTEVPLQWLRSELPYVLEMVAELAGQQDPGLGAFSCQEARRAWLDRHGNLDEAVEECVRTRRRKVQELQSLGFGPEEGSLQALFQHGGDVSRALTELQRQRLEPFRQRLWDSGPEPTPSWDGPDKQSLVRRLLAVYALPSWGRAELALSLLQETPRNYELGDVVEAVRHSQDRAFLRRLLAQECAVCGWALPHNRMQALTSCECTICPDCFRQHFTIALKEKHITDMVCPACGRPDLTDDTQLLSYFSTLDIQLRESLEPDAYALFHKKLTEGVLMRDPKFLWCAQCSFGFIYEREQLEATCPQCHQTFCVRCKRQWEEQHRGRSCEDFQNWKRMNDPEYQAQGLAMYLQENGIDCPKCKFSYALARGGCMHFHCTQCRHQFCSGCYNAFYAKNKCPEPNCRVKKSLHGHHPRDCLFYLRDWTALRLQKLLQDNNVMFNTEPPAGARAVPGGGCRVIEQKEVPNGLRDEACGKETPAGYAGLCQAHYKEYLVSLINAHSLDPATLYEVEELETATERYLHVRPQPLAGEDPPAYQARLLQKLTEEVPLGQSIPRRRK | copurified endogenous OTULIN | coprecipitated OTULIN
4 | Y82A: V5-tagged HOIP with point mutation Y82A in the PUB binding site (protein, left off: V5, end not stated, kept) MPGEEEERAFLVAREELASALRRDSGQAFSLEQLRPLLASSLPLAARYLQLDAARLVRCNAHGEPRNYLNTLSTALNILEKAGRNLLSPQRPRYWRGVKFNNPVFRSTVDAVQGGRDVLRLYGYTEEQPDGLSFPEGQEEPDEHQVATVTLEVLLLRTELSLLLQNTHPRQQALEQLLEDKVEDDMLQLSEFDPLLREIAPGPLTTPSVPGSTPGPCFLCGSAPGTLHCPSCKQALCPACDHLFHGHPSRAHHLRQTLPGVLQGTHLSPSLPASAQPRPQSTSLLALGDSSLSSPNPASAHLPWHCAACAMLNEPWAVLCVACDRPRGCKGLGLGTEGPQGTGGLEPDLARGRWACQSCTFENEAAAVLCSICERPRLAQPPSLVVDSRDAGICLQPLQQGDALLASAQSQVWYCIHCTFCNSSPGWVCVMCNRTSSPIPAQHAPRPYASSLEKGPPKPGPPRRLSAPLPSSCGDPEKQRQDKMREEGLQLVSMIREGEAAGACPEEIFSALQYSGTEVPLQWLRSELPYVLEMVAELAGQQDPGLGAFSCQEARRAWLDRHGNLDEAVEECVRTRRRKVQELQSLGFGPEEGSLQALFQHGGDVSRALTELQRQRLEPFRQRLWDSGPEPTPSWDGPDKQSLVRRLLAVYALPSWGRAELALSLLQETPRNYELGDVVEAVRHSQDRAFLRRLLAQECAVCGWALPHNRMQALTSCECTICPDCFRQHFTIALKEKHITDMVCPACGRPDLTDDTQLLSYFSTLDIQLRESLEPDAYALFHKKLTEGVLMRDPKFLWCAQCSFGFIYEREQLEATCPQCHQTFCVRCKRQWEEQHRGRSCEDFQNWKRMNDPEYQAQGLAMYLQENGIDCPKCKFSYALARGGCMHFHCTQCRHQFCSGCYNAFYAKNKCPEPNCRVKKSLHGHHPRDCLFYLRDWTALRLQKLLQDNNVMFNTEPPAGARAVPGGGCRVIEQKEVPNGLRDEACGKETPAGYAGLCQAHYKEYLVSLINAHSLDPATLYEVEELETATERYLHVRPQPLAGEDPPAYQARLLQKLTEEVPLGQSIPRRRK | abrogated OTULIN binding | 
5 | N102D: V5-tagged HOIP with point mutation N102D in the PUB binding site (protein, UniProt Q96EP0 1-1072, looked up, variant N102D, V5 tag) E3 ubiquitin-protein ligase …: MPGEEEERAFLVAREELASALRRDSGQAFSLEQLRPLLASSLPLAARYLQLDAARLVRCNAHGEPRNYLNTLSTALNILEKYGRNLLSPQRPRYWRGVKFNDPVFRSTVDAVQGGRDVLRLYGYTEEQPDGLSFPEGQEEPDEHQVATVTLEVLLLRTELSLLLQNTHPRQQALEQLLEDKVEDDMLQLSEFDPLLREIAPGPLTTPSVPGSTPGPCFLCGSAPGTLHCPSCKQALCPACDHLFHGHPSRAHHLRQTLPGVLQGTHLSPSLPASAQPRPQSTSLLALGDSSLSSPNPASAHLPWHCAACAMLNEPWAVLCVACDRPRGCKGLGLGTEGPQGTGGLEPDLARGRWACQSCTFENEAAAVLCSICERPRLAQPPSLVVDSRDAGICLQPLQQGDALLASAQSQVWYCIHCTFCNSSPGWVCVMCNRTSSPIPAQHAPRPYASSLEKGPPKPGPPRRLSAPLPSSCGDPEKQRQDKMREEGLQLVSMIREGEAAGACPEEIFSALQYSGTEVPLQWLRSELPYVLEMVAELAGQQDPGLGAFSCQEARRAWLDRHGNLDEAVEECVRTRRRKVQELQSLGFGPEEGSLQALFQHGGDVSRALTELQRQRLEPFRQRLWDSGPEPTPSWDGPDKQSLVRRLLAVYALPSWGRAELALSLLQETPRNYELGDVVEAVRHSQDRAFLRRLLAQECAVCGWALPHNRMQALTSCECTICPDCFRQHFTIALKEKHITDMVCPACGRPDLTDDTQLLSYFSTLDIQLRESLEPDAYALFHKKLTEGVLMRDPKFLWCAQCSFGFIYEREQLEATCPQCHQTFCVRCKRQWEEQHRGRSCEDFQNWKRMNDPEYQAQGLAMYLQENGIDCPKCKFSYALARGGCMHFHCTQCRHQFCSGCYNAFYAKNKCPEPNCRVKKSLHGHHPRDCLFYLRDWTALRLQKLLQDNNVMFNTEPPAGARAVPGGGCRVIEQKEVPNGLRDEACGKETPAGYAGLCQAHYKEYLVSLINAHSLDPATLYEVEELETATERYLHVRPQPLAGEDPPAYQARLLQKLTEEVPLGQSIPRRRK | abrogated OTULIN binding | 
6 | aa 1–436: HOIP construct aa 1–436, also including B box and NZF domains (protein, UniProt Q96EP0 1-436, looked up, fragment) MPGEEEERAFLVAREELASALRRDSGQAFSLEQLRPLLASSLPLAARYLQLDAARLVRCNAHGEPRNYLNTLSTALNILEKYGRNLLSPQRPRYWRGVKFNNPVFRSTVDAVQGGRDVLRLYGYTEEQPDGLSFPEGQEEPDEHQVATVTLEVLLLRTELSLLLQNTHPRQQALEQLLEDKVEDDMLQLSEFDPLLREIAPGPLTTPSVPGSTPGPCFLCGSAPGTLHCPSCKQALCPACDHLFHGHPSRAHHLRQTLPGVLQGTHLSPSLPASAQPRPQSTSLLALGDSSLSSPNPASAHLPWHCAACAMLNEPWAVLCVACDRPRGCKGLGLGTEGPQGTGGLEPDLARGRWACQSCTFENEAAAVLCSICERPRLAQPPSLVVDSRDAGICLQPLQQGDALLASAQSQVWYCIHCTFCNSSPGWVCVMCNRTS | OTULIN interaction was increased | 
